# Measurements: patent US20250179176A1, “ANTI-TIGIT ANTIBODIES AND USES OF THE SAME” (ARCUS BIOSCIENCES, INC., priority 2022, published 2025)
# T1: TIGIT (Homo sapiens, UniProt Q495A1)
# T1 construct: select peripheral lymphocyte populations in whole blood collected from patients enrolled in a clinical study; endogenous in cells; host or cells: peripheral lymphocytes in whole blood of dosed patients
# T1 sequence (Q495A1 22-244): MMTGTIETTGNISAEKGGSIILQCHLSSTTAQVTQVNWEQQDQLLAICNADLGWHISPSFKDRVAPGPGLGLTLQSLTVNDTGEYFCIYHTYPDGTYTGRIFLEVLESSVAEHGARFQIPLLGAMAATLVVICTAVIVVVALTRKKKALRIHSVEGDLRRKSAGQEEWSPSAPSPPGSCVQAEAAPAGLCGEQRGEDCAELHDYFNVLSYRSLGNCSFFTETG
# B1: domvanalimab: anti-TIGIT antibody with engineered IgG1 Fc, reduced FcγR binding; heavy chain SEQ ID NO: 12, light chain SEQ ID NO: 13 (antibody)
# heavy: EVQLVESGGGLVQPGGSLRLSCAASGFTFSNFGMHWVRQAPGKGLEWVAFISSGSSSIYYADTVKGRFTISRDNAKNSLYLQMNSLRAEDTAVYYCARMRLDYYAMDYWGQGTMVTVSSASTKGPSVFPLAPSSKSTSGGTAALGCLVKDYFPEPVTVSWNSGALTSGVHTFPAVLQSSGLYSLSSVVTVPSSSLGTQTYICNVNHKPSNTKVDKKVEPKSCDKTHTCPPCPAPEAAGGPSVFLFPPKPKDTLMISRTPEVTCWVDVSHEDPEVKFNWYVDGVEVHNAKTKPREEQYNSTYRWSVLTVLHQDWLNGKEYKCKVSNKALPAPIEKTISKAKGQPREPQVYTLPPSRDELTKNQVSLTCLVKGFYPSDIAVEWESNGQPENNYKTTPPVLDSDGSFFLYSKLTVDKSRWQQGNVFSCSVMHEALHNHYTQKSLSLSPGK
# light: DIQMTQSPSSLSASVGDRVTITCRASKSISKYLAWYQQKPGKAPKLLIYSGSTLQSGVPSRFSGSGSGTDFTLTISSLQPEDFATYYCQQHNEYPWTFGGGTKVEIKRTVAAPSVFIFPPSDEQLKSGTASWCLLNNFYPREAKVQWKVDNALQSGNSQESVTEQDSKDSTYSLSSTLTLSKADYEKHKVYACEVTHQGLSSPVTKSFNRGEC
# Columns and labels:
# [1] = system: Jurkat cell line stably overexpressing human TIGIT; test: CDC assay with human complement; format: cell-based; settings: increasing concentrations up to 33 nM
# Method: Briefly, 50,000 Jurkat-TIGIT cells in RPMI 1640 medium (Invitrogen) containing 10% fetal bovine serum (FBS) were seeded into a 96-well round bottom plates (Nunc). Test antibodies were added starting at a top concentration of 50 μg/ml followed by a three-fold dilution series and allowed to incubate with cells for 1 hour at 37° C. in a 5% CO2 incubator. After this 1-hour incubation, human complement was added and allowed to incubate for an additional 3 hours at 37° C. in a 5% CO2 incubator. Following the completion of this 3-hour incubation, […] of propidium iodide (ThermoFisher) was added and samples were analyzed by flow cytometry (BD FACSCalibur) to determine the percentages of propidium iodide positivity as a readout for cell death.
# [2] = molecular target: T1, TIGIT; test: TIGIT receptor occupancy (RO) assay in whole blood by flow cytometry; format: in vivo
# Method: The RO assay is depicted in FIG. 3A and FIG. 3B.
# The RO of domvanalimab on select peripheral lymphocyte populations in whole blood collected from patients enrolled in a clinical study was assessed by flow cytometry using pre- and post-dose whole blood samples. […] RO was determined on various immune cell types using antibodies specific for surface markers CD3, CD4, CD8, CD56, FoxP3, and Ki67. RO was calculated as follows: […]
# [3] = monotherapy cohort (N=10), initial cutoff
# [4] = monotherapy cohort (N=10), Grade 1
molecule,measurement,setting,value
B1,complement-dependent cytotoxicity,[1],No cytotoxicity
same,RO across all dose groups,"[2]; 24 participants, 0.5-20 mg/kg Q2W/Q3W/Q4W, all post-dose time points",maximal RO
same,TIGIT receptor occupancy (RO),"[2]; Q2W, monotherapy and combination cohorts, all cell types, 1 hour after end of infusion of first dose",≥ 98%
same,RO at later time points,"[2]; Q2W, pre-dose Day 15, 29, 57, 85",complete RO was maintained
same,SAE decreased appetite,monotherapy cohort (N=10),10%
same,SAE dyspnea,monotherapy cohort (N=10),10%
same,SAE hyponatremia,monotherapy cohort (N=10),10%
same,SAE peritonitis bacterial,monotherapy cohort (N=10),10%
same,SAE pleural effusion,monotherapy cohort (N=10),10%
same,discontinued domvanalimab due to a TEAE,monotherapy cohort (N=10),30%
same,dose delays/interruptions due to a TEAE,monotherapy cohort (N=10),10%
same,SAEs considered related to domvanalimab,[3],none
same,TEAE dyspnea regardless of causality,[3],30%
same,"all other TEAEs, each",[3],≤ 10%
same,participants with SAEs,[3],40%
same,participants with at least 1 TEAE,[3],100%
same,participants with domvanalimab-related TEAEs,[3],30%
same,total number of SAEs,[3],5
same,domvanalimab-related TEAE fatigue,[4],10%
same,domvanalimab-related TEAE hyperglycemia,[4],10%
same,domvanalimab-related TEAE nausea,[4],10%
same,domvanalimab-related TEAE pruritus,[4],10%
same,deaths due to treatment-related AEs,"whole study, initial cutoff",No deaths
